Test [1] deals with acetylcholine receptor. Description: SPR, AchR immobilised, peptide 10 uM.
In test [2] the target is acetylcholine receptor. In words: SPR, peptide at 10 µM on acetylcholine receptor. In general terms: SPR reads the build-up and loss of mass on a sensor chip optically.

In turn, RKMMMK [6mer-1-1127] registered a Binding affinity (RU) with acetylcholine receptor [1] of 34 RU. Turning to KKPTDR [6mer-1-1125], the Binding affinity (RU) with acetylcholine receptor [1] amounted to 26 RU. With KSFSK [5mer-351], in the test with acetylcholine receptor [2], the Binding affinity (RU) was 75 RU. As for KRFCK [5mer-56], the Binding affinity (RU) with acetylcholine receptor [2] was 59 RU. In the test with acetylcholine receptor [1], KRCCVR [6mer-1-1109] had a Binding affinity (RU) of 41 RU. The same measure, in the same setting: the result for KKFNFK [6mer-1-1114] reads 38 RU.

The molecule RSLQR [5mer-51] displayed a Binding affinity (RU) with acetylcholine receptor [2] of 70 RU. RRKEAK [6mer-1-1120] gave a Binding affinity (RU) with acetylcholine receptor [1] of 22 RU.

KRFTKK [6mer-1-1102] gave a Binding affinity (RU) with acetylcholine receptor [1] of 35 RU. The same measure, in the same setting: then RRASPR [6mer-1-1111], with 38 RU; and KKKKPK [6mer-1-1128], with 39 RU. Take KRNSAR [6mer-1-1104]: the Binding affinity (RU) with acetylcholine receptor [1] amounted to 28 RU. The same measure, in the same setting: then KRMSHK [6mer-1-1100], with 43 RU. Regarding KQLYR [5mer-57], the Binding affinity (RU) with acetylcholine receptor [2] stood at 73 RU.

For the molecule KRFMNK [6mer-1-1106], the Binding affinity (RU) with acetylcholine receptor [1] is 39 RU. Still for that read-out and setting: then KKDEIR [6mer-1-1124], with 21 RU. On to KLLCR [5mer-50], for which the Binding affinity (RU) with acetylcholine receptor [2] was 63 RU. For KRHPFR [6mer-1-1116], the Binding affinity (RU) in the test with acetylcholine receptor [1] amounted to 35 RU. For RRFSR [5mer-55], the Binding affinity (RU) with acetylcholine receptor [2] turned out to be 58 RU.

On to KSQLK [5mer-353], for which the Binding affinity (RU) with acetylcholine receptor [2] was 59 RU.

In the case of KRIWVR [6mer-1-1119], in the test with acetylcholine receptor [1], the Binding affinity (RU) is 31 RU.

For RLVRK [5mer-352], the Binding affinity (RU) with acetylcholine receptor [2] worked out at 76 RU. For RKFTER [6mer-1-1110], the Binding affinity (RU) with acetylcholine receptor [1] worked out at 24 RU. Molecule KREDNK [6mer-1-1103] displayed a Binding affinity (RU) with acetylcholine receptor [1] of 27 RU.

In turn, KKDTIK [6mer-1-1118] came in with a Binding affinity (RU) with acetylcholine receptor [1] of 33 RU. Turning to KKTWWR [6mer-1-1121], in the test with acetylcholine receptor [1], the Binding affinity (RU) was 28 RU.

As to KSYYK [5mer-350], the Binding affinity (RU) in the test with acetylcholine receptor [2] was determined as 59 RU. Same read-out and setting: the result for RQQYK [5mer-52] reads 50 RU; that for RSQTR [5mer-354], 64 RU; that for KWVSK [5mer-58], 75 RU.

As to RRECDK [6mer-1-1101], the Binding affinity (RU) with acetylcholine receptor [1] was found to be 37 RU.

Regarding KQVLR [5mer-356], the Binding affinity (RU) in the test with acetylcholine receptor [2] was found to be 65 RU.

Molecule RRDNVK [6mer-1-1123] gave a Binding affinity (RU) with acetylcholine receptor [1] of 41 RU. The same measure, in the same setting: then KRCPPR [6mer-1-1107], with 36 RU. With KQVYR [5mer-349], the Binding affinity (RU) with acetylcholine receptor [2] is 50 RU.

In the test with acetylcholine receptor [1], RKCAFR [6mer-1-1115] yielded a Binding affinity (RU) of 43 RU. The molecule RLVTR [5mer-53] had a Binding affinity (RU) in the test with acetylcholine receptor [2] of 50 RU. As for RKDNIK [6mer-1-1131], the Binding affinity (RU) with acetylcholine receptor [1] was found to be 42 RU. For the molecule KWLQR [5mer-54], the Binding affinity (RU) with acetylcholine receptor [2] was 66 RU. In turn, RRHCDK [6mer-1-1126] yielded a Binding affinity (RU) in the test with acetylcholine receptor [1] of 41 RU. Turning to KKDPWK [6mer-1-1112], in the test with acetylcholine receptor [1], the Binding affinity (RU) was 27 RU. RGFRK [5mer-357] had a Binding affinity (RU) in the test with acetylcholine receptor [2] of 54 RU. The molecule RRCTMK [6mer-1-1113] showed a Binding affinity (RU) in the test with acetylcholine receptor [1] of 28 RU. Same read-out and setting: then RKATFR [6mer-1-1130], with 31 RU. As for RKDHAR [6mer-1-1129], the Binding affinity (RU) in the test with acetylcholine receptor [1] is 39 RU. Same read-out and setting: the result for RRCTAR [6mer-1-1105] reads 40 RU.

In the test with acetylcholine receptor [2], KWRTR [5mer-49] registered a Binding affinity (RU) of 62 RU. In the test with acetylcholine receptor [1], KKEWFR [6mer-1-1117] displayed a Binding affinity (RU) of 40 RU. Take RRTMGR [6mer-1-1122]: in the test with acetylcholine receptor [1], the Binding affinity (RU) came to 33 RU. Still for that read-out and setting: then RRAHNK [6mer-1-1108], with 43 RU. The molecule KLLYR [5mer-355] returned a Binding affinity (RU) with acetylcholine receptor [2] of 87 RU.

Source of the values: patent US20250011363A1, “OPTIMIZED SHORTENED PEPTIDE THAT BINDS TO ACETYLCHOLINE RECEPTOR, AND USE THEREOF” (SKINMED CO., LTD., priority 2021, published 2025).
